Test results taken from patent publication WO2015103549A1 (dated 2015).

How the values were obtained:
[1] = molecular target: T1, HIV YU2 gp160 extracellular domain (gp140) foldon trimer (HIV-1, UniProt P35961 32-671); test: ELISA, antigen coated at 2 ug/ml
T1 construct: extracellular domain; also called HIVYU2 gp140 foldon trimer; not shown: foldon trimerisation domain

HIV YU2 gp120 monomer = molecular target: T2, HIV YU2 gp120 monomer (HIV-1, UniProt P35961 32-498); test: ELISA, antigen coated at 2 ug/ml
T2 construct: domain: gp120

HIV YU2 gp41 monomer = molecular target: T3, HIV YU2 gp41 monomer (HIV-1, UniProt P35961 499-671); test: ELISA, antigen coated at 2 ug/ml
T3 construct: domain: gp41

[2] = molecular target: T4, Sjogren syndrome antigen B (UniProt P05455 1-408); test: Luminex AtheNA Multi-Lyte ANA test
T4 construct: also called SSB; SS-B/La
T4 sequence (looked up): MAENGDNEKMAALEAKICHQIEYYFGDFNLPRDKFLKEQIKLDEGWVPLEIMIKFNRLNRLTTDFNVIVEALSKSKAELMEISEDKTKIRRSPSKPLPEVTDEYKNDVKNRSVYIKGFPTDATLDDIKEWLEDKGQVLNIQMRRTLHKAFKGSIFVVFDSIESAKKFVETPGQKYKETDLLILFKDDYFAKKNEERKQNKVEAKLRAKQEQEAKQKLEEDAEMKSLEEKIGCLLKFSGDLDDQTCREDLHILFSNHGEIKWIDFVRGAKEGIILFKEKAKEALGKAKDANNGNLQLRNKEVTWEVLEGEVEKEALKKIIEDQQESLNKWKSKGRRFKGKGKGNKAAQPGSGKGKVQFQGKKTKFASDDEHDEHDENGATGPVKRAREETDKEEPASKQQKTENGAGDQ

scleroderma 70 = molecular target: T5, scleroderma 70 (UniProt P11387 2-765); test: Luminex AtheNA Multi-Lyte ANA test
T5 construct: also called Scl 70
T5 sequence (looked up): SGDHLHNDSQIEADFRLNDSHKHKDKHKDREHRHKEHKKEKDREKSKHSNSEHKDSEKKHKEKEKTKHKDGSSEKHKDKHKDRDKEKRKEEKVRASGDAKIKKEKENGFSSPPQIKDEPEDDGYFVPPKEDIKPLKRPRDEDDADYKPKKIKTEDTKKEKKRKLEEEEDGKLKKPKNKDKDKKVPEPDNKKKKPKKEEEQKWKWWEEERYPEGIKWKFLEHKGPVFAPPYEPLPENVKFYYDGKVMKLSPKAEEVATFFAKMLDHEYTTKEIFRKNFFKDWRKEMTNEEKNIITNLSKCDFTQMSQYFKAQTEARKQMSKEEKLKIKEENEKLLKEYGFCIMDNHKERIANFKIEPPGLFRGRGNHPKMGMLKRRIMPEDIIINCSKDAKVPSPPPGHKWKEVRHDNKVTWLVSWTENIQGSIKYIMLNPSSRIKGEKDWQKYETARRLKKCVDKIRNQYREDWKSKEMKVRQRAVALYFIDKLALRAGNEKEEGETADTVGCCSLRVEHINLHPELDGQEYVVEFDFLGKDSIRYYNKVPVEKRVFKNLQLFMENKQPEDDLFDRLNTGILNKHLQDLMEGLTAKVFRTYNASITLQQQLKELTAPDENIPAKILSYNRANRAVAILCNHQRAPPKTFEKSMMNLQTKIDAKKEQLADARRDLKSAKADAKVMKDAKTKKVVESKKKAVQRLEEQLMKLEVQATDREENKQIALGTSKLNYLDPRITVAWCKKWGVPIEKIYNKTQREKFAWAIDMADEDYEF

Jo1 antigen = molecular target: T6, Jo1 antigen (UniProt P12081 2-509); test: Luminex AtheNA Multi-Lyte ANA test
T6 sequence (looked up): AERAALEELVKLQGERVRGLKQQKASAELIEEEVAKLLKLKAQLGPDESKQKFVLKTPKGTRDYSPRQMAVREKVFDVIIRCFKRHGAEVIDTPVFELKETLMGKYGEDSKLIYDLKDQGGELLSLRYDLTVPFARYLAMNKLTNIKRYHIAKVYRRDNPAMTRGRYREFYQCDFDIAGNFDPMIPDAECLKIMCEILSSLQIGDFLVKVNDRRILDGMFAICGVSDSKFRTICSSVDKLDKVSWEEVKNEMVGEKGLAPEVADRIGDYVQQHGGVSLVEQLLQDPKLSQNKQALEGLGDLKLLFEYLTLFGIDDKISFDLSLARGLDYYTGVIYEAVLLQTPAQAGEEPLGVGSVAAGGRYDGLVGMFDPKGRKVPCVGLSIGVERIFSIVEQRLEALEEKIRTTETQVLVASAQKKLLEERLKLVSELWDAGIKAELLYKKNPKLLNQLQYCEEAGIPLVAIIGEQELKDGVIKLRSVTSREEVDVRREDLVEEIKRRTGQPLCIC

centromere B = molecular target: T7, centromere B (UniProt P07199 2-599); test: Luminex AtheNA Multi-Lyte ANA test
T7 construct: also called CentrB
T7 sequence (looked up): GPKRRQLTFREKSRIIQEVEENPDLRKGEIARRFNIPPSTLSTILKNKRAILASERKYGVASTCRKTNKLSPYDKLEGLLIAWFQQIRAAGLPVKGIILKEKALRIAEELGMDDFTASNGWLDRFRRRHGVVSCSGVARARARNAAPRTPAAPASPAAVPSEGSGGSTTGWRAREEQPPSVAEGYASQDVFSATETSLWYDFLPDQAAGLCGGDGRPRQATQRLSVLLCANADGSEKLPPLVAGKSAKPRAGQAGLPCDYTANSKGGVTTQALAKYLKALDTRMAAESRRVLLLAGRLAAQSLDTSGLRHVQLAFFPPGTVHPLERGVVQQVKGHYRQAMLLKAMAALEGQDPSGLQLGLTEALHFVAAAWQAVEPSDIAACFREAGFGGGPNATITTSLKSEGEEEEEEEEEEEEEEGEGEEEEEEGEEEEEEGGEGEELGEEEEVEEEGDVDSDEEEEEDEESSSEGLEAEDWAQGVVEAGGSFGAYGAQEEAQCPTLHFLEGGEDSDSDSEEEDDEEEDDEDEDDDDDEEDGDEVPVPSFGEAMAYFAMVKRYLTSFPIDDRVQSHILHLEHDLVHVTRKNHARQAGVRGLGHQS

BG505 SOSIP.664 trimer = molecular target: T8, BG505 SOSIP.664 trimer (HIV-1); test: SPR, trimer immobilized by anti-histidine capture, Biacore 3000, 25 C (FIG. 2D)
T8 construct: domain: gp120;domain: gp41 ectodomain; also called soluble BG505 SOSIP

B1: 35022 antibody (antibody, V domains shown)
VH: QGQLVQSGAELKKPGASVKISCKTSGYRFNFYHINWIRQTAGRGPEWMGWISPYSGDKNLAPAFQDRVIMTTDTEVPVTSFTSTGAAYMEIRNLKFDDTGTYFCAKGLLRDGSSTWLPYLWGQGTLLTVSS
VL: QSVLTQSASVSGSLGQSVTISCTGPNSVCCSHKSISWYQWPPGRAPTLIIYEDNERAPGISPRFSGYKSYWSAYLTISDLRPEDETTYYCCSYTHNSGCVFGTGTKVSVL
notes: also called 35022 mAb
B1: no binding [1]; no binding (HIV YU2 gp120 monomer); no binding (HIV YU2 gp41 monomer). B1: no binding [2]; no binding (scleroderma 70); no binding (Jo1 antigen). The binding result (centromere B) was “no binding” and the Kd (BG505 SOSIP.664 trimer) was 5.6 nM.
